Results from patent publication US20100233079A1 (AbbVie / Abbott, published 2010).

What was measured:
[1] = biological target: T1, NRP1 (Neuropilin-1 Npn-1-His tag) (UniProt O14786-2 22-644, limits assumed); test: direct bind ELISA, antigen on plate
T1 construct: Bought antigen with a His tag
Method: Enzyme Linked Immunosorbent Assays to screen for antibodies that bind a desired target antigen were performed as follows. […] Plates were washed four times with PBS containing 0.02% Tween 20. […] Plates were washed four times after blocking with PBS containing 0.02% Tween 20.
One hundred microliters of 10 ng/mL goat anti-human IgG-FC specific HRP conjugated antibody (Southern Biotech #2040-05, Birmingham, Ala.) was added to each well of the desired target antigen plate or anti-polyHistidine antibody/Histidine tagged desired target antigen plate. Alternatively, one hundred microliters of 10 ng/mL goat anti-human IgG-kappa light chain specific HRP conjugated antibody (Southern Biotech #2060-05 Birmingham, Ala.) was added to each well of the desired target antigen/FC fusion plate and incubated for 1 hour at room temperature. Plates were washed 4 times with PBS containing 0.02% Tween 20.

[2] = biological target: T2, rhIL-13 (recombinant human IL-13) (human, UniProt P35225 35-146, limits assumed); test: cell-based or functional assay
[3] = biological target: T2, rhIL-13 (recombinant human IL-13); test: SPR (Biacore 3000), mAb captured by anti-human IgG Fc, antigen in solution
Source text: Unreacted moieties on the biosensor surface were blocked with ethanolamine. Modified carboxymethyl dextran surface in flowcell 2 and 4 was used as a reaction surface.

T2 sequence (P35225 35-146 limits assumed): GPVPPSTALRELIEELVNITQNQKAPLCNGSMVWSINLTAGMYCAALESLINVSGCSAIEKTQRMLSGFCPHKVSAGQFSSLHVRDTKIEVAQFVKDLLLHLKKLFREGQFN

Row | EC50 [1] [nM] | IC50 (nM), A549 bioassay (IL-13 induced TARC) [2] [nM] | Kd [3] [nM] | Binder
1 | 0.28 |  |  | AB016 (antibody, V domains shown, Parent antibody) VH: EVQLVESGGGLVQPGGSLRLSCAASGFSFSSEPISWVRQAPGKGLEWVSSITGKNGYTYYADSVKGRFTISADTSKNTAYLQMNSLRAEDTAVYYCARWGKKVYGMDVWGQGTLVTVSS VL: DIQMTQSPSSLSASVGDRVTITCRASQSISSYLAWYQQKPGKAPKLLIYGASSRASGVPSRFSGSGSGTDFTLTISSLQPEDFATYYCQQYMSVPITFGQGTKVEIKR
2 |  | 0.2 | 0.15 | 13C5.5 (antibody, V domains shown, Monoclonal antibody; also called AB231) VH: EVTLRESGPGLVKPTQTLTLTCTLYGFSLSTSDMGVDWIRQPPGKGLEWLAHIWWDDVKRYNPALKSRLTISKDTSKNQVVLKLTSVDPVDTATYYCARTVSSGYIYYAMDYWGQGTLVTVSS VL: DIQMTQSPSSLSASVGDRVTISCRASQDIRNYLNWYQQKPGKAPKLLIFYTSKLHSGVPSRFSGSGSGTDYTLTISSLQPEDIATYYCQQGNTLPLTFGGGTKVEIKR
3 |  | 0.31 | 0.24 | 13C5.5L3F (antibody, V domains shown, Monoclonal antibody; also called AB232) VH: EVTLRESGPGLVKPTQTLTLTCTLYGFSLSTSDMGVDWIRQPPGKGLEWLAHIWWDDVKRYNPALKSRLTISKDTSKNQVVLKLTSVDPVDTATYYCARTVSSGYIYYAMDYWGQGTLVTVSS VL: DIQMTQSPSSLSASVGDRVTISCRASQDIRNYLNWYQQKPGKAPKLLIFYTSKLHSGVPSRFSGSGSGTDYTLTISSLQPEDIATYYCQQGLTPPLTFGGGTKVEIKR
